{"source": "patent US9486502B2", "about": "“Methods of administering interferon gamma to absorb fluid from the subretinal space” (The United States of America, as represented by the …, priority 2008, dated 2016)", "key": {"[1]": {"assay": "Phase I study of topical interferon gamma-1b in CME secondary to uveitis (OCT macular thickness)", "assay_type": "in vivo, human", "details": "based on therapeutic treatment of topical IFNα", "text": "To test whether cystoid macular edema (CME), secondary to uveitis, is caused by the disequilibrium of the Jak/Stat and mTor signal transduction pathways in the retinal pigment epithelium (RPE), interferon gamma-1β topically applied in human patients. Five participants with CME secondary to uveitis receive a topical ocular instillation of interferon gamma-1b in a Phase I, non-randomized, prospective, uncontrolled, dose-escalation, single-center study. The study involves a one-time instillation or series of instillations of interferon gamma-1b on the cornea and measurement of a response with optical coherence tomography (OCT) over a three hour period.\nA 25% decrease in macular thickness is observed at a post-instillation as compared to baseline. In the study, the first two participants receive one instillation (each instillation contains […] in 0.05 mL solution) on the cornea at time zero, the next two participants receive two instillations, 10 minutes apart, for a total dosage of 20 μg, and the final participant receives three instillations, 10 minutes apart, for a total of 30 μg. OCT will be obtained at −60 minutes, −30 minutes and just before the instillation(s). […]\nParticipants with CME secondary to uveitis are treated with ocular instillation(s) of interferon gamma-1b. […] The effect on the retinal thickness is measured using OCT measurements as indicated below. […]"}, "[2]": {"tested_on": "hfRPE cells", "assay": "immunoblotting of JAK-STAT / MAP kinase signalling proteins in hfRPE", "assay_type": "cell-based, human", "description": "Immunoblotting was performed as previously described in Li, R. et al., 2007, Invest Ophthalmol Vis Sci, 48, 5722-5732, incorporated by reference in its entirety herein. Primary cultures of hfRPE and native human adult RPE cells were lysed using RIPA buffer (Sigma-Aldrich) supplemented with proteinase inhibitor cocktail (Roche). Total protein in the supernatant was measured (BCA™ protein assay, Pierce Biotechnology) and 20 µg of protein from cell lysate supernatants was electrophoresed on a 4-12% gradient Bis-Tris NuPAGE gel (Invitrogen) under reduced or non-reduced conditions. Resolved proteins were transferred to nitrocellulose membranes (membranes and XCell II™ Blot Module, Invitrogen).\nThe membranes were incubated with mouse anti-human IFNγ R1 monoclonal antibody (R&D Systems), anti-human IFNγ R2 (Santa Cruz Biotechnology), anti-human IFNAR1, anti-human IFNAR2 (Abcam), anti-IRF1, anti-IRF2, anti-IRF8 (Santa Cruz Biotechnology) or anti-CFTR antibody 217 (Cystic Fibrosis Foundation Therapeutics Inc., Bethesda, Md.), after blocking non-specific binding ((StartingBlock™ T20 (TBS), Pierce Biotechnology). Membranes were then incubated with horseradish peroxidase (HRP) conjugated secondary antibody (Pierce Biotechnology) and visualized using Supersignal® West Dura Extended Duration Substrate (Pierce Biotechnology) and imaged using an Autochemie™ system (UVP, Upland, Calif.). The antibody-specific bands for IRF-1, IRF-2, ICSBP (IRF-8) and GAPDH were around 91 kDa, […], respectively.\nFor phosphorylation studies, cells were starved for 24 hours in serum-free medium (“SFM,” MEM-α modification medium containing non-essential amino acids and Glutamine-Penicillin-Streptomycin). Cells were treated with IFNγ (5-50 ng/ml) in SFM at various time points at 37° C. and lysed with RIPA buffer supplemented with proteinase inhibitor cocktail (Roche) and Halt™ phosphatase inhibitor cocktail (Pierce Biotechnology). 40 μg of protein was electrophoresed. As in the immunoblotting experiments described above, except that the membranes were incubated with anti-phospho-p38 MAP kinase (Thr180/Tyr182), anti-p38 MAP kinase, anti-phospho-Stat1 (Tyr701), anti-phospho-Stat1 (Ser727) or anti-Stat1 antibodies, respectively (each from Cell signaling Technology, Danvers, Mass.). The antibody-specific bands for STAT1/phospho-STAT1 (Tyr701) were around 84 kDa. GAPDH was blotted together with anti-GAPDH antibody (Abcam) and used as loading control. Cyclohexamide (“CHX”; Sigma-Aldrich), a protein synthesis inhibitor, was used at 62 μM.\nFor CFTR immunoblotting analysis, confluent monolayers of hfRPE were homogenized on ice in isolation solution (250 mM Sucrose, 10 mM Tris-HCl, 10 mM MgCl2, 1 mM CaCl2, pH 7.4) supplemented with Halt™ protease inhibitor cocktail, EDTA-free. Nuclei and intact cells were removed with centrifugation (900×g for 10 minutes at 4° C., followed by centrifugation at 10,000×g for 5 minutes). Crude plasma membrane proteins were collected after centrifugation at 100,000×g for 1 hour at 4° C."}}, "note": "Entries after “also recorded” stand apart in the source; their conditions may differ.", "data": [{"molecule": "IFNγ: pleiotropic cytokine produced by T- and NK-cells; obtained from Peprotech (protein, UniProt P01579 24-161, looked up) Interferon gamma: QDPYVKEAENLKKYFNAGHSDVADNGTLFLGILKNWKEESDRKIMQSQIVSFYFKLFKNFKDDQSIQKSVETIKEDMNVKFFNSNKKKRDDFEKLTNYSVTDLNVQRKAIHELIQVMAELSPAAKTGKRKRSQMLFRG", "values": [{"measurement": "tolerability of topically applied IFNγ", "setting": "[1]", "result": "well-tolerated"}, {"measurement": "STAT1 tyrosine phosphorylation", "setting": "[2]; IFNγ 5 ng/ml, 15 minutes", "result": "tyrosine phosphorylated"}, {"measurement": "IRF-1 protein", "setting": "[2]; IFNγ 4 hours", "result": "activated; also recorded: significantly increased"}, {"measurement": "IRF-2 protein", "setting": "[2]; IFNγ 4 hours", "result": "unaffected; also recorded: no effect"}, {"measurement": "IRF-8 (ICSBP) protein", "setting": "[2]; IFNγ-treated hfRPE", "result": "below the detection limit; also recorded: no detectable change"}, {"measurement": "effect on CFTR protein level", "setting": "[2]; IFNγ-treated hfRPE, not statistically significant", "result": "small decrease"}, {"measurement": "STAT1 protein signal", "setting": "[2]; after IFNγ treatment", "result": "significantly increased; also recorded: significantly up-regulated"}, {"measurement": "effect on JNK or P44/P42 phosphorylation", "setting": "[2]; all six time points tested", "result": "no effect"}, {"measurement": "period over which IFNγ-induced phosphorylation of STAT1 was observed", "setting": "[2]; hfRPE", "result": "2 to 48", "unit": "h"}, {"measurement": "time to IFNγ-induced phosphorylation of P38 MAPK", "setting": "[2]; hfRPE, serum starved 24 hours", "result": "2 to 5", "unit": "min"}]}]}
